Source: paper doi:10.1101/2024.10.27.620470 (bioRxiv, 2024)
“And” between values parts separate entries of the source, which are not always exact repeats. Equal values may be shown once.

Experiments:
[1] = target: N-terminal domain of SARS-CoV-2 nucleocapsid protein (NTD-N_(41-174)) (SARS-CoV-2) (UniProt P0DTC9); experiment: ITC
[2] = target: NTD-N_(41-174) protein double mutant (WV133134AA) (SARS-CoV-2) (UniProt P0DTC9); experiment: ITC
[3] = target: GFP-tagged G3BP1_(NTF-2) (G3BP1_(NTF-2)-GFP) (human, UniProt Q13283 1-139); experiment: fluorescence intensity-based PPIs plate assay
[4] = target: NTF2-like domain of Ras GTPase-activating protein SH3-domain-binding protein 1 (G3BP1_(NTF-2)) (human, UniProt Q13283 1-139); experiment: ITC

NTF2-like domain of Ras GTPase-activating protein SH3-domain-binding protein 1 (G3BP1_(NTF-2)) (from UniProt Q13283 1-139) (domain or fragment)
Kd [1]: 5.5 µM | fold higher KD than the single mutants (V134A and W133A) [2]: 2 fold and 4 fold

B1: mutant N_(128-138) peptide 3 (KAGIIAAATEG) (peptide)
peptide: KAGIIAAATEG
binding result [3]: binds

B2: mutant N_(128-138) peptide 2 (KDGIIAAATEG) (peptide)
peptide: KDGIIAAATEG
binding result [3]: binds

B3: N_(128-138) peptide 1 (KDGIIWVATEG) (peptide)
peptide: KDGIIWVATEG
Kd [4]: 11.8 µM
